Source: patent US20160030544A1 (published 2016)

Target: fHbp v2.22 WT
Assay: SPR

B1: fH6-7 (other)
chain: TLKPCDYPDIKHGGLYHENMRRPYFPVAVGKYYSYYCDEHFETPSGSYWDHIHCTQDGWSPAVPCLRKCYFPYLENGYNQNYGRKFVQGKSIDVACHPGYALPKAQTTVTCMENGWSPTPRCI
Work on B1 yielded a Kd of 0.3 nM.
